Assay results taken from patent publication US20240409645A1.
Positions count from the first letter of the chain named.

T1: mouse IL-2Rα (mouse) (UniProt P01590)
T1 sequence (looked up): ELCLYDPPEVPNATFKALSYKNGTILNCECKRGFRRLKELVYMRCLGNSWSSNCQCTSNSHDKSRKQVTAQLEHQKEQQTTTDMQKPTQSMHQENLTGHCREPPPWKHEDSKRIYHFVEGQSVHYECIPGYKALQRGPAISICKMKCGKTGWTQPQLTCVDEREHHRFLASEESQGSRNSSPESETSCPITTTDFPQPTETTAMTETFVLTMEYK

T2: mouse IL-2Rγ (mouse) (UniProt P34902)
T2 sequence (looked up): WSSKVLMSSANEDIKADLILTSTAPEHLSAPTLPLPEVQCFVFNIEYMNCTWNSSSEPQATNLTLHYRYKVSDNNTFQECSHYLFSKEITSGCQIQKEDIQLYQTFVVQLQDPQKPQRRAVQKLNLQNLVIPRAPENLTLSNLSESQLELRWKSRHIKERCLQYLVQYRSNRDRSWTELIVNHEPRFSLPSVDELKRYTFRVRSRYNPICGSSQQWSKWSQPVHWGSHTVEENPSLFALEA

B1: 6-MP01G05 (VHH)
VHH: QVQLQESGGGLVQAGGSLRLSCAASGRTFSSYAMGWFRQAPGKEREFVAVISWNVDNTEYTDSVKGRFTISRDNDKNMVYLQMNSLKPEDTAVYYCAADSIPLSSDMSPTATEYGYWGQGTQVTVSS
B2: 2-MP01A02 (VHH)
VHH: QVQLVESGGGLVQPGGSLRLSCATSGFTFRNNFMSWVRQAPGKGLEWVSTISYGGESTTYAESVKGRFTISRDNAKNTLYLQMNNLKPEDTAVYYCAKATSYDSIRSGSRGQGTQVTVSS
B3: 07-MP01G08 (VHH)
VHH: EVQLVESGGGLVQAGGSLRLSCAASGRAFSMYNMGWFRQAPGKEREFVAATGWSGANTPYADSVKGRFTISRDNTQNTVYLQMNSLKPEDTATYYCAADSIRLRSDVTRIPLEYDYWGQGTQVTVSS
B4: 3-MP01E03 (VHH)
VHH: QVQLVESGGGLVQAGGSLRLSCTASGRTLSSYSMAWFRQAADKGREFVTAISSSGVVTHVLDSVKGRFTISRDNAKNTVYLQMNSLQPEDTALYFCAGTASSYSTYEANYNYWGQGTLVTVSS
B5: 5-MP01F05 (VHH)
VHH: EVQLVESGGGLVQAGGSLRLSCAASIRAFTTWSMAWFRQAPGKEREYVARINVSGSVTYYADFVKGRFTISRDNAKKTMYLEMNNLKPEDTALYYCAADRTGVGTNDYNYWGQGTQVTVSS
B6: 1-MP01H01 (VHH)
VHH: EVQLVESGGGLVQAGGSLRLSCAASGRTFRTHNMGWFRRAPGKEREFVAAISWNVDNTLYADSVKGRFTISRDNGRNMVYLQMNSLKPEDTAVYYCAADNIPLSSDVAATATEYDYWGQGTQVTVSS
B7: FJ1427_P035MP04G03 (VHH)
VHH: EVQLVESGGGWVQVGESLRLSCAPSGRTFVSGIMGWFRQAPGKEREFVARIILNNNSTRYTDSVKGRFTISRDSAKNTMYLQMDSLRPEDTAVYYCAARDRYGSGNSLSPSAYDYWGQGTQVTVSS
B8: FJ1427_P035MP04G07 (VHH)
VHH: B7 VHH with E1Q, D84N, S85T
B9: FJ1427_P035MP04A10 (VHH)
VHH: B7 VHH with D84N, S85T
B10: FJ1427_P035MP04G10 (VHH)
VHH: B7 VHH with E1Q, N55S, V64A
B11: FJ1427_P035MP04D12 (VHH)
VHH: B7 VHH with E1Q, E16K, T61I
B12: FJ1427_P035MP04D09 (VHH)
VHH: B7 VHH with E1Q, S31R, N55S, T61I, D84N
B13: FJ1427_P035MP04C05 (VHH)
VHH: B7 VHH with E1Q, N77D, D84N, S85T
B14: FJ1427_P035MP04G08 (VHH)
VHH: B7 VHH with E1Q
B15: FJ1427_P035MP04F11 (VHH)
VHH: B7 VHH with E1Q, A40T, M79L, D84N, S85T
B16: FJ1427_P035MP04C12 (VHH)
VHH: B7 VHH with T61I
B17: FJ1427_P035MP04H10 (VHH)
VHH: B7 VHH with E1Q, W11L, V14A, E16G, T61I
B18: FJ1427_P035MP04F09 (VHH)
VHH: B7 VHH with E1Q, S31R, Y80W
B19: FJ1427_P035MP04H11 (VHH)
VHH: B7 VHH with E1Q, L18P, A40T, D84N, S85T
B20: FJ1427_P035MP04H09 (VHH)
VHH: B7 VHH with D84N, S85T
B21: FJ1427_P035MP04A07 (VHH)
VHH: B7 VHH with E1Q, V2L, T61I
B22: FJ1427_P035MP04F10 (VHH)
VHH: B7 VHH with E1Q, V2L, A23V, L53S, D84N, S85T
B23: FJ1427_P035MP04C10 (VHH)
VHH: B7 VHH with E1Q, V5Q, A23V, D84N, S85T
B24: FJ1427_P035MP04G11 (VHH)
VHH: B7 VHH with E1Q, K43E, D84N, S85T
B25: FJ1427_P035MP04E12 (VHH)
VHH: B7 VHH with E1Q, V2L, V30A, D84N, S85T
B26: FJ1427_P035MP04B06 (VHH)
VHH: B7 VHH with E1Q, V2L, A23V, D84N, S85T
B27: FJ1427_P035MP04B11 (VHH)
VHH: B7 VHH with T61I
B28: FJ1427_P035MP04B07 (VHH)
VHH: B7 VHH with A40T, M79L, D84N, S85T
B29: FJ1427_P035MP04B10 (VHH)
VHH: B7 VHH with T61I, S126L
B30: FJ1427_P035MP04E04 (VHH)
VHH: B7 VHH with A23V, N55S, D84N
B31: FJ1427_P035MP04A04 (VHH)
VHH: QVQLVESGGGLVQAGESLRLSCAASGPTASRVAVAWFRQVPGKEREFVAVVNRPGTMTKYADSVKGRFTISRDSAKNTVYLQMNSLKPEDTAVYYCAADSVPYGRPYYFQTSAGNYDYWGQGTQVTVSS
B32: FJ1427_P035MP04A11 (VHH)
VHH: B31 VHH
B33: FJ1427_P035MP04G09 (VHH)
VHH: B31 VHH with V5Q, E16G, A29F, A35G, V50A, G55A, S74N, Y80D, L86M, N115E
B34: FJ1427_P035MP04C11 (VHH)
VHH: B31 VHH with A14H, E16G, A29F, A35G, T56S, T69N, S74T, Q110T, N115D
B35: FJ1427_P035MP04H08 (VHH)
VHH: B31 VHH with Q1E
B36: FJ1427_P035MP04D08 (VHH)
VHH: B31 VHH
B37: FJ1427_P035MP04A09 (VHH)
VHH: QVQLVESGGGLVQAGGSLRLSCAASGRTFGAVAVGWFRQVPGKEREFVAAINRNGSATKYADSAKGRFTISRDNAESPVYLQMNSLKPEDTAIYYCAADSLPYGRPYYFQTSAGEYDYWGQGTQVTVSS
B38: FJ1427_P035MP04D11 (VHH)
VHH: B37 VHH with Q1E, N54S, A64V, Y80F, I93V

Target: T1, mouse IL-2Rα (mouse)
Experiment: ELISA, P.E. on coated antigen

| OD (PE binding ELISA) [OD450 nm] | Binder |
| --- | --- |
| 0.046 | B1 |
| 0.046 | B2 |
| 0.046 | B3 |
| 0.046 | B4 |
| 0.046 | B5 |
| 0.048 | B6 |

Target: T2, mouse IL-2Rγ (mouse)
Experiment: PE binding ELISA, periplasmic extract on coated protein

| OD (PE binding ELISA) [OD450 nm] | Binder |
| --- | --- |
| 0.049 | B7 |
| 0.049 | B8 |
| 0.048 | B9 |
| 0.049 | B10 |
| 0.054 | B11 |
| 0.048 | B12 |
| 0.047 | B13 |
| 0.049 | B14 |
| 0.049 | B15 |
| 0.048 | B16 |
| 0.049 | B17 |
| 0.049 | B18 |
| 0.049 | B19 |
| 0.05 | B20 |
| 0.049 | B21 |
| 0.048 | B22 |

| OD (PE binding ELISA) [OD450 nm] | Binder |
| --- | --- |
| 0.047 | B23 |
| 0.048 | B24 |
| 0.051 | B25 |
| 0.048 | B26 |
| 0.047 | B27 |
| 0.047 | B28 |
| 0.047 | B29 |
| 0.048 | B30 |
| 0.05 | B31 |
| 0.05 | B32 |
| 0.05 | B33 |
| 0.047 | B34 |
| 0.053 | B35 |
| 0.048 | B36 |
| 0.049 | B37 |
| 0.048 | B38 |
